In the series the test system is Cc1cc(=O)oc2cc(O[C@@H]3O[C@H](CO)[C@@H](O)[C@H](O)[C@H]3O)ccc12. Kind of series: purified protein. The following applies: 20 mM sodium phosphate pH 6.5, 1 µM enzyme, temperature not stated.

Usually Km stands for the concentration of substrate that gives half-maximal velocity. A word on the kcat: it is the maximal rate divided by the concentration of active sites.

Regarding “VC0615 (Vibrio cholerae O1 biovar El Tor str. N16961)”, the Km worked out at 768 µM and the catalytic constant (kcat) was found to be 1.3 min⁻¹.

The values above are taken from paper PMC6096475, “Structure of the GH9 glucosidase/glucosaminidase from Vibrio cholerae” (Acta Crystallographica. Section F, Structural Biology …, 2018).
